The series deals with T1, Pgi8Cas13b (Porphyromonas gingivalis ATCC 33277, UniProt B2RL97 1-1119).
T1 sequence: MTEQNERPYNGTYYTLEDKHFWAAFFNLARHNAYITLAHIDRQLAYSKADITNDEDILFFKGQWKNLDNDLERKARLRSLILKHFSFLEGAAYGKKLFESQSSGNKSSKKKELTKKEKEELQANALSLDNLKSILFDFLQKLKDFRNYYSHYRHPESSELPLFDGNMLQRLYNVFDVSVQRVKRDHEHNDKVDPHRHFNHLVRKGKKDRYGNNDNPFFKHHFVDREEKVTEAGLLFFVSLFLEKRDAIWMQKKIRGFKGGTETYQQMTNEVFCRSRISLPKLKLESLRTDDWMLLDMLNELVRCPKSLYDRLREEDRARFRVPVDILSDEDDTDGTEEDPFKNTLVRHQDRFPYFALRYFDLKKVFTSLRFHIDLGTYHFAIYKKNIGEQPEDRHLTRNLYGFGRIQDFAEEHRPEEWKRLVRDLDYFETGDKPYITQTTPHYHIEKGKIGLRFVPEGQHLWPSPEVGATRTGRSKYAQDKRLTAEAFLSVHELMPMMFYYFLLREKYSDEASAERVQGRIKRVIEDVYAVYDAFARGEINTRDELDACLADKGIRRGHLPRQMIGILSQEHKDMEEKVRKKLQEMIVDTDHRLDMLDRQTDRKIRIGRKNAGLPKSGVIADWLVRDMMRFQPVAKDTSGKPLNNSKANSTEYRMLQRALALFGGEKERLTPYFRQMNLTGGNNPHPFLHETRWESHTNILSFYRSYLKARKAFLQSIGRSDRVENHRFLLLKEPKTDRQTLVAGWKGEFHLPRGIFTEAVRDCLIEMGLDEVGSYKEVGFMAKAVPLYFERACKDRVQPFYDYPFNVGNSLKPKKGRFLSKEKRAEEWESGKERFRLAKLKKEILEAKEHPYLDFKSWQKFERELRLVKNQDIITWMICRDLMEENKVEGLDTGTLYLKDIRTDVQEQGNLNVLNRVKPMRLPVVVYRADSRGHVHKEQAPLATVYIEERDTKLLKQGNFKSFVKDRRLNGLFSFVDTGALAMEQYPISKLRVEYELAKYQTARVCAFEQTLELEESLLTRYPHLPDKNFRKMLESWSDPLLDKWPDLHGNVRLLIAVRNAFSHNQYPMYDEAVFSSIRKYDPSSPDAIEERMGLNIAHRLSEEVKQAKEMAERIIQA
The series can be described thus: EMSA. For orientation: A gel shift assay detects complexes by their altered migration in electrophoresis.

B1: Pgi8 crRNA (SP2), Cy5 body-labeled (structured_RNA)
RNA: GCAAGUGGAAUUAAUCUUUUUUCUUCUUUACGUUGGAUCUUCCCUCUAUUCGAAGGGUACACACAAC
Usually Kd stands for the equilibrium constant for the complex coming apart. As for B1, the Kd is 18 nM.
